Experimental data reported in patent US20110142849A1 (IRM, published 2011).

Experiments:
hNotch-3 NRR = target: T1, hNotch-3 NRR (human, UniProt Q9UM47); experiment: specificity ELISA on coated antigen (88 ng per well), antibody at 2 µg/mL, ABS650
T1 construct: panel antigen of the specificity ELISA
T1 sequence (antigen, looked up): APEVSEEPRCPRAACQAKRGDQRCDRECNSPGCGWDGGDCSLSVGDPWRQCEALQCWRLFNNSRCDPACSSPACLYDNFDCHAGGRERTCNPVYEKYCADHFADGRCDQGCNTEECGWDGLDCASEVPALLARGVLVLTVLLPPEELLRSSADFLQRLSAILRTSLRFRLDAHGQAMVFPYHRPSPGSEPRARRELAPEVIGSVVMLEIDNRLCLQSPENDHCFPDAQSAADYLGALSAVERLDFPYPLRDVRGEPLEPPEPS
Method: For specificity ELISAs on purified human and mouse IgGs, a 384-well plate was coated with a panel of purified human or mouse antigens at 88 ng per well and incubated overnight at 4° C. The plate was blocked and washed as described above, then 22 μL of purified mouse or human anti-PCSK9 antibody diluted to 2 μg/mL in PBS was added to each well. The plate was incubated for 1 hr at 37° C. then washed with PBST. Anti-mouse Fc antibody (Jackson ImmunoResearch Labs #115-035-071) or anti-human kappa antibody (Sigma #A7164) conjugated to HRP was diluted 1:5000 in PBS (25 μL) and added to each well. The plate was incubated for 1 hr at room temperature, then washed and developed as described above.
In order to test whether the antigen specificity of the parental mouse antibody LFU720 was retained in the final Humaneered™ IgGs, LGT209, LGT210 and LGT211, binding of the antibodies to a panel of human and mouse antigens (as well as human PCSK9) was tested in an ELISA assay.

[1] = target: T2, recombinant human Pcsk9 (aa 31-692) with C-terminal his6 tag (human, UniProt Q8NBP7 31-692); experiment: Solution Equilibrium Titration (SET), MSD read-out
T2 construct: In the TR-FRET assay it carried a fluorophore (hPcsk9-AF); also called hPCSK9; hPcsk9
Method: The binding kinetics of IgGs and Fab fragments were analyzed using a Solution Equilibrium Titration (“SET”) assay. Briefly, serial dilutions of hPCSK9 were added to 60 pM IgG or Fab and incubated overnight. A 96-well Standard Bind microtiter plate (Meso Scale Discovery) was coated with 1 μg/ml hPCSK9 and incubated overnight, washed with PBS/0.05% (w/v) Tween 20, blocked with PBS/5% (w/v) BSA, and washed again. The antibody-antigen preparation was added to the PCSK9-coated Standard Bind plate and incubated for 30 min at room temperature. After three additional washing steps, Sulfo-Tag-labeled goat-anti-human-detection antibody (R32AJ-5, Meso Scale Discovery) was added and incubated one hour at room temperature. After washing the plate three times, Read Buffer (Meso Scale Discovery) was added and electrochemiluminescence (ECL) signals were measured by a Sector Imager 6000 (Meso Scale Discovery). ECL data were processed with the excel add-in XLfit 4.3.2 (ID Business Solutions) using the fitting model applicable for antibodies described in Piehler, et al., (1997) J Immunol Methods 201:189-206.

[2] = target: T3, cynomolgus monkey Pcsk9 with C-terminal his6 tag (cynomolgus monkey); experiment: ELISA on cyno Pcsk9his, antibody 0.03 to 30 ng/ml, Abs 650nm
T3 chain: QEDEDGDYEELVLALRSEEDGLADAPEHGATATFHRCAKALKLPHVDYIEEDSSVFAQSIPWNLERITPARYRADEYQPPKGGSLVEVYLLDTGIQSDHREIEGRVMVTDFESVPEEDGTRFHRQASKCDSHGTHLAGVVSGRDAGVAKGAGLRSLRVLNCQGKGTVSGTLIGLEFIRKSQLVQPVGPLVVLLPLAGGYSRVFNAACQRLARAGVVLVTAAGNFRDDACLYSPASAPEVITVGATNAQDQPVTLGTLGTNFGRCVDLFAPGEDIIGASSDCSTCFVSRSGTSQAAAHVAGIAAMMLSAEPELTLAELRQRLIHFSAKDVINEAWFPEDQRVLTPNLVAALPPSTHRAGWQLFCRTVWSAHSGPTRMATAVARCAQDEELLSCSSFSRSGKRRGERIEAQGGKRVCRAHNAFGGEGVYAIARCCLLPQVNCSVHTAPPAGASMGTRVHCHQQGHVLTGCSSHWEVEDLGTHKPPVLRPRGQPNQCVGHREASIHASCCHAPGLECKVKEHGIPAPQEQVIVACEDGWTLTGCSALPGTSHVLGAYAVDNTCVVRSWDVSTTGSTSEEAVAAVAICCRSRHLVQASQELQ

human LDL-R protein = target: T4, human LDL-R protein (human, UniProt P01130 22-788, limits assumed); experiment: ELISA
T4 construct: Labelled with europium in the TR-FRET assay; also called hLDL-R; hLDL-R-Eu (europium-labelled)
T4 sequence (P01130 22-788 limits assumed): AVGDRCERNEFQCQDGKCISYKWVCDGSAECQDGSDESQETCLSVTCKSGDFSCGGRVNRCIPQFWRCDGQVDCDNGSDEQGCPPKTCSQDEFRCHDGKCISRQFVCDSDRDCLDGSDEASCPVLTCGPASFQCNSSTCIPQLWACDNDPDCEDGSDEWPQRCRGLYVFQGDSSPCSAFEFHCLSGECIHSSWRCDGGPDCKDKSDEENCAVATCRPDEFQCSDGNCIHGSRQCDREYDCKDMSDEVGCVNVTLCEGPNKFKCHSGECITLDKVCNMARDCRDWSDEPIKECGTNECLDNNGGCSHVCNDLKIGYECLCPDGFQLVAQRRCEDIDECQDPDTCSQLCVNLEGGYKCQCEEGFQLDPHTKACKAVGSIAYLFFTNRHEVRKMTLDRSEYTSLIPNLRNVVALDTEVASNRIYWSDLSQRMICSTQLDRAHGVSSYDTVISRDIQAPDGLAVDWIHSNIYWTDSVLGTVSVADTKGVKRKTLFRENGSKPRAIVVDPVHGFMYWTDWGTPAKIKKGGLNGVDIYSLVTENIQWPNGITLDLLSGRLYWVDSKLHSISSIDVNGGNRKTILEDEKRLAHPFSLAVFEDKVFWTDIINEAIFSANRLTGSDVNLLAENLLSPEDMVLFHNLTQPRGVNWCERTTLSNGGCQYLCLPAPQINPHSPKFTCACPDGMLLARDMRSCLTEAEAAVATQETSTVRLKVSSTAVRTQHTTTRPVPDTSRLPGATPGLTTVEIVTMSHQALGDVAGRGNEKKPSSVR

[3] = target: T5, mouse Pcsk9 with C-terminal his6 tag (mouse, UniProt Q80W65 35-694, limits assumed); experiment: ELISA
T5 construct: also called murine PCSK9
T5 sequence (Q80W65 other isoform, or with tags, fused parts or gaps limits assumed): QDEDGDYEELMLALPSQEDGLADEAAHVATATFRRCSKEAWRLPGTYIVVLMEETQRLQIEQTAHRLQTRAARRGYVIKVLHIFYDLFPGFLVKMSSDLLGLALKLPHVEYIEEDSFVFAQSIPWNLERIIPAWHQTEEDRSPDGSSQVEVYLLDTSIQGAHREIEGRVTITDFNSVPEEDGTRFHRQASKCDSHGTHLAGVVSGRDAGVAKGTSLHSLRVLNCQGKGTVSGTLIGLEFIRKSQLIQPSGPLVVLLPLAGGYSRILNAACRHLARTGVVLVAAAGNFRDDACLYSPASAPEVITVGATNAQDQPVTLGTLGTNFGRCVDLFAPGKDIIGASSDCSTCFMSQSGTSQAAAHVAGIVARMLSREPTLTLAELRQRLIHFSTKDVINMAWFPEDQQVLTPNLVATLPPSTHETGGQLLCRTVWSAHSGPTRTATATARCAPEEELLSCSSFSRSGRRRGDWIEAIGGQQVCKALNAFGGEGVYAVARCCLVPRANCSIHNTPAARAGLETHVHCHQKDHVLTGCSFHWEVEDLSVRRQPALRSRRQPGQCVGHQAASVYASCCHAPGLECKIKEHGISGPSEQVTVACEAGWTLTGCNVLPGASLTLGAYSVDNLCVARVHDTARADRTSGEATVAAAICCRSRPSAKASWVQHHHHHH

[4] = target: T2, recombinant human Pcsk9 (aa 31-692) …; experiment: TR-FRET, disruption of hLDL-R-Eu and hPcsk9-AF
Method: The TR-FRET assay was performed in 384-well white, shallow plates (Perkin Elmer, 6008280). hPcsk9-AF (10.7 nM) was incubated with serial dilutions of unlabeled hPcsk9 protein, EGF-A peptide, or NVP-LFU720-AX-1 antibody for 30 minutes at room temperature in 15 μL of assay buffer (20 mM HEPES, pH 7.2, 150 mM NaCl, 1 mM CaCl₂, 0.1% v/v Tween 20, and 0.1% w/v BSA). This was followed by addition of 5 μL of hLDL-R-Eu (4 nM) in assay buffer to the hPcsk9 and NVP-LFU720-AX-1 preincubated complex, and incubation at room temperature for 90 minutes. The final concentrations of these labeled proteins were 8 nM of hPcsk9-AF and 1 nM of hLDL-R-Eu. The TR-FRET signal was measured with EnVision 2100 multilabel reader (Perkin Elmer) at 330 nm excitation and 665 nm emission. Data was converted to normalized values using the following formula: [(665 nm value×10,000)/(615 nm value)]. The percentage inhibition was calculated with the following formula: 100-[(normalized value of treated sample/averaged normalized value of untreated samples)×100]. The percentage inhibition dose response curves were plotted using Prism version 5 with the formula, Y=Bottom+(Top−Bottom)/(1+10̂((LogIC₅₀−X)*HillSlope)) (GraphPad Prism Software).
TR-FRET assay was used for determining if the anti-hPcsk9 antibody NVP-LFU720 could disrupt the interaction between hPcsk9-AF and hLDL-R-Eu labeled proteins. […]

B1: NVP-LGT211 (antibody, human IgG1, V domains shown)
VH: QVQLVQSGAEVKKPGASVKVSCKASGYTFSTMYMSWVRQAPGQGLEWMGRIDPANEHTNYAQKFQGRVTMTRDTSISTAYMELSRLTSDDTAVYYCARSYYYYAMDYWGQGTLVTVSS
VL: QIVLTQSPATLSVSPGERATLSCRASQSVSYMHWYQQKPGQAPRLLIYGVFRRATGIPDRFSGSGSGTDFTLTIGRLEPEDFAVYYCLQWSSDPPTFGQGTKLEIKR
notes: Silent human IgG1 kappa; also called pSR74 (Vh) + pJG10 (Vk); pSR074 + pJG10
For B1, the binding result (hNotch-3 NRR) was “no binding (tested: 2 µg/mL)”, the Kd [1] was 0.19 nM and the “EC50 (read off the curve)” value [2] was ~2 ng/mL.

B2: NVP-LFU720 (antibody, V domains shown)
VH: EVQLQQSGAELMKPGASVKLSCTASGFNIKDMYMSWVRQRPEQGLEWIGRIDPANGHTNYDPKFQAKATITTDTSSKTAYLHLSSLTSEDTAVYYCARSYYYYAMDYWGQGTSVTVSS
VL: QIVLTQSPAIMSASPGEKVTMTCSASSSVSYMHWYQQKPGSSPRLWIYLTFNLASGVPARFSGSGSGTSYSLSISSMEAEDAATYYCLQWSSDPPTFGSGTKLEIK
notes: Murine anti-human Pcsk9 IgG1-kappa monoclonal antibody from a hybridoma; also called 5P20; NVP-LFU720-AX-1
With B2 the binding result (human LDL-R protein) was “no binding”, the binding result [3] was “no binding” and the IC50 [4] was > 1000 nM. B2: no binding (tested: 2 µg/mL) (hNotch-3 NRR).
